Test results: PMC7862519

How the values were obtained:
[1] = biological target: D2 (his-tagged domain 2 of extracellular endo-alpha-(1->5)-L-arabinanase 1) (Geobacillus stearothermophilus T-6) (UniProt B3EYN2); assay: reflectometric porous-silicon aptasensor (real-time EOT); details: 5'-amino, Selection buffer: 50 mM K2HPO4, 150 mM NaCl, pH 7.4, flow 30 uL/min for 1 h, temperature not stated, elution with 1 M imidazole
[2] = biological target: D2N (D2 without his tag) (Geobacillus stearothermophilus T-6) (UniProt B3EYN2); assay: as above; details: 1 uM protein, 5'-amino, Selection buffer: 50 mM K2HPO4, 150 mM NaCl, pH 7.4, flow 30 uL/min for 1 h, temperature not stated, elution with 1 M imidazole

GCTATGGGTGGTCTGGTTGGGATTGGCCCCGGGAGCTGGC [anti-his tag aptamer 6H7]
binding signal (relative dEOT/EOT0 x10^-3) ([1]; 0.25 uM protein, 3D-printed microfluidic): 1.6
binding signal (relative dEOT/EOT0 x10^-3) ([1]; 0.5 uM protein, 3D-printed microfluidic, reused sensor): 2.3
binding signal (relative dEOT/EOT0 x10^-3) ([1]; 1 uM protein, 3D-printed microfluidic, released by 1 M imidazole): 4
binding signal (relative dEOT/EOT0 x10^-3) ([1]; 1 uM protein, PDMS microfluidic, signal partly non-specific adsorption): 3.2
binding signal (relative dEOT/EOT0 x10^-3) ([2]; PDMS microfluidic, ascribed to non-specific adsorption): 1.7
binding signal (relative dEOT/EOT0 x10^-3) ([2]; 3D-printed microfluidic): 0.8
